# In the supplement of paper PMC9112550, “Optimization of the antimicrobial peptide Bac7 by deep mutational scanning” (BMC Biology, 2022):
# Tested on: Escherichia coli TOP10
# Test: shrunken log2 fold change of peptide-encoding DNA abundance (4.5 h post-induction vs induction); higher = less antimicrobial activity (less host growth inhibition)
# Settings: time post-induction: 4.5 h; library: site-saturation at positions 5, 18, 19, 20
# 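Note: peptides expressed intracellularly from a pBAD plasmid library in pooled LB shake-flask culture, induced with 0.3% L-arabinose, DNA abundance read by NGS, three biological replicates, DESeq2 with apeglm shrinkage.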
row,Sequence,shrunken log2 fold change
1,RRIRARPPRLPRPRPRPRGKPRP,0.376
2,RRIRERPPRLPRPRPRPRDAPRP,0.446
3,RRIRPRPPRLPRPRPRPFCYPRP,-0.26
4,RRIRTRPPRLPRPRPRPATAPRP,0.362
5,RRIRYRPPRLPRPRPRPSNRPRP,-0.134
6,RRIRWRPPRLPRPRPRPYHVPRP,-0.141
7,RRIRPRPPRLPRPRPRPHLIPRP,-0.287
8,RRIRVRPPRLPRPRPRPTTDPRP,-0.0625
9,RRIRGRPPRLPRPRPRPHTTPRP,0.333
10,RRIRGRPPRLPRPRPRPMHMPRP,0.347
11,RRIRWRPPRLPRPRPRPGGEPRP,0.107
12,RRIRCRPPRLPRPRPRPHANPRP,-0.0108
13,RRIRSRPPRLPRPRPRPGATPRP,0.584
14,RRIRGRPPRLPRPRPRPVAGPRP,1.12
15,RRIRMRPPRLPRPRPRPAEEPRP,1.55
16,RRIRNRPPRLPRPRPRPPSPPRP,0.538
17,RRIRYRPPRLPRPRPRPYRRPRP,-0.00141
18,RRIRWRPPRLPRPRPRPRKSPRP,0.264
19,RRIRCRPPRLPRPRPRPSVPPRP,-0.784
20,RRIRQRPPRLPRPRPRPHETPRP,-0.0223
21,RRIRWRPPRLPRPRPRPHFPPRP,0.064
22,RRIRPRPPRLPRPRPRPFCVPRP,0.156
23,RRIRPRPPRLPRPRPRPFSQPRP,-0.231
24,RRIRPRPPRLPRPRPRPLSDPRP,-0.0446
25,RRIRVRPPRLPRPRPRPLDDPRP,0.00726

row,Sequence,shrunken log2 fold change
1,RRIRTRPPRLPRPRPRPHLRPRP,-0.264
2,RRIRSRPPRLPRPRPRPSCLPRP,-0.585
3,RRIRLRPPRLPRPRPRPKPSPRP,0.432
4,RRIRKRPPRLPRPRPRPPCVPRP,0.443
5,RRIRERPPRLPRPRPRPWYPPRP,-0.224
6,RRIRRRPPRLPRPRPRPEGPPRP,0.568
7,RRIRVRPPRLPRPRPRPCSYPRP,-0.0326
8,RRIRGRPPRLPRPRPRPITEPRP,0.000184
9,RRIRERPPRLPRPRPRPAGYPRP,0.0991
10,RRIRFRPPRLPRPRPRPQMVPRP,-0.0194
11,RRIRCRPPRLPRPRPRPDFTPRP,-0.0655
12,RRIRGRPPRLPRPRPRPAMGPRP,0.541
13,RRIRDRPPRLPRPRPRPHQMPRP,0.00713
14,RRIRTRPPRLPRPRPRPFISPRP,-0.0743
15,RRIRWRPPRLPRPRPRPLSEPRP,0.104
16,RRIRGRPPRLPRPRPRPCFIPRP,0.0559
17,RRIRCRPPRLPRPRPRPVTHPRP,-0.29
18,RRIRQRPPRLPRPRPRPGAAPRP,0.553
19,RRIRLRPPRLPRPRPRPEMQPRP,0.0197
20,RRIRNRPPRLPRPRPRPSCYPRP,-0.181
21,RRIRIRPPRLPRPRPRPVWSPRP,0.0432
22,RRIRPRPPRLPRPRPRPWPTPRP,0.438
23,RRIRMRPPRLPRPRPRPGTVPRP,-0.071
24,RRIRFRPPRLPRPRPRPPTQPRP,0.327
25,RRIRVRPPRLPRPRPRPEWCPRP,0.323

row,Sequence,shrunken log2 fold change
1,RRIRPRPPRLPRPRPRPPFSPRP,0.0978
2,RRIRKRPPRLPRPRPRPWMFPRP,-0.000428
3,RRIRNRPPRLPRPRPRPENQPRP,0.216
4,RRIRKRPPRLPRPRPRPRTVPRP,0.244
5,RRIRVRPPRLPRPRPRPCYYPRP,-0.147
6,RRIRTRPPRLPRPRPRPSQVPRP,-0.2
7,RRIRTRPPRLPRPRPRPHFCPRP,0.0392
8,RRIRPRPPRLPRPRPRPCWLPRP,-0.018
9,RRIRSRPPRLPRPRPRPGGRPRP,0.284
10,RRIRPRPPRLPRPRPRPVHPPRP,0.127
11,RRIRGRPPRLPRPRPRPPCYPRP,0.265
12,RRIRYRPPRLPRPRPRPEIYPRP,-0.279
13,RRIRVRPPRLPRPRPRPFLFPRP,-0.205
14,RRIRHRPPRLPRPRPRPEHYPRP,0.504
15,RRIRQRPPRLPRPRPRPQFTPRP,-0.177
16,RRIRARPPRLPRPRPRPHYEPRP,-0.234
17,RRIRTRPPRLPRPRPRPFAYPRP,-0.136
18,RRIRMRPPRLPRPRPRPVTEPRP,-0.0547
19,RRIRGRPPRLPRPRPRPLRQPRP,0.62
20,RRIRWRPPRLPRPRPRPCIIPRP,-0.222
21,RRIRWRPPRLPRPRPRPGYSPRP,-0.191
22,RRIRSRPPRLPRPRPRPDKAPRP,-0.111
23,RRIRWRPPRLPRPRPRPRHEPRP,-0.0681
24,RRIRIRPPRLPRPRPRPDTAPRP,-0.232
25,RRIRFRPPRLPRPRPRPLSAPRP,-0.039

row,Sequence,shrunken log2 fold change
1,RRIRVRPPRLPRPRPRPIPCPRP,-0.0881
2,RRIRNRPPRLPRPRPRPCTHPRP,-0.147
3,RRIRHRPPRLPRPRPRPHNPPRP,-0.216
4,RRIRFRPPRLPRPRPRPVETPRP,-0.0497
5,RRIRSRPPRLPRPRPRPLPCPRP,-0.00277
6,RRIRMRPPRLPRPRPRPFHKPRP,0.0887
7,RRIRSRPPRLPRPRPRPPVIPRP,-0.0672
8,RRIRLRPPRLPRPRPRPMRNPRP,0.372
9,RRIRHRPPRLPRPRPRPLSVPRP,-0.136
10,RRIRNRPPRLPRPRPRPYRHPRP,-0.01
11,RRIRMRPPRLPRPRPRPDWYPRP,-0.135
12,RRIRPRPPRLPRPRPRPWWNPRP,-0.227
13,RRIRWRPPRLPRPRPRPDWWPRP,0.0352
14,RRIRIRPPRLPRPRPRPMKRPRP,0.0451
15,RRIRTRPPRLPRPRPRPAAWPRP,0.754
16,RRIRARPPRLPRPRPRPRNWPRP,0.388
17,RRIRARPPRLPRPRPRPECQPRP,0.333
18,RRIRDRPPRLPRPRPRPFVRPRP,-0.234
19,RRIRHRPPRLPRPRPRPPKIPRP,0.282
20,RRIRQRPPRLPRPRPRPFACPRP,-0.111
21,RRIRGRPPRLPRPRPRPVRSPRP,0.902
22,RRIRYRPPRLPRPRPRPIPWPRP,-0.545
23,RRIRIRPPRLPRPRPRPFEDPRP,-0.207
24,RRIRNRPPRLPRPRPRPRAWPRP,-0.054
25,RRIRGRPPRLPRPRPRPMMTPRP,3.31

row,Sequence,shrunken log2 fold change
1,RRIRYRPPRLPRPRPRPLVKPRP,-1.45
2,RRIRLRPPRLPRPRPRPHMYPRP,-1.07
3,RRIRIRPPRLPRPRPRPGWVPRP,0.28
4,RRIRCRPPRLPRPRPRPMMVPRP,-0.659
5,RRIRTRPPRLPRPRPRPDDHPRP,-0.00476
6,RRIRRRPPRLPRPRPRPLQAPRP,0.98
7,RRIRSRPPRLPRPRPRPMATPRP,0.0201
8,RRIRYRPPRLPRPRPRPWSCPRP,-0.171
9,RRIRERPPRLPRPRPRPHHFPRP,-0.0117
10,RRIRHRPPRLPRPRPRPTELPRP,0.0215
11,RRIRMRPPRLPRPRPRPPTVPRP,0.593
12,RRIRSRPPRLPRPRPRPCYAPRP,-0.478
13,RRIRNRPPRLPRPRPRPQQSPRP,-0.0808
14,RRIRNRPPRLPRPRPRPDLYPRP,-0.0459
15,RRIRGRPPRLPRPRPRPGSVPRP,0.484
16,RRIRNRPPRLPRPRPRPMLVPRP,-0.0299
17,RRIRTRPPRLPRPRPRPRFIPRP,-0.806
18,RRIRYRPPRLPRPRPRPCDWPRP,-0.0122
19,RRIRVRPPRLPRPRPRPCIVPRP,-0.0169
20,RRIRVRPPRLPRPRPRPEQQPRP,0.0394
21,RRIRRRPPRLPRPRPRPKDGPRP,0.378
22,RRIRGRPPRLPRPRPRPEMNPRP,0.999
23,RRIRTRPPRLPRPRPRPVYAPRP,-0.249
24,RRIRFRPPRLPRPRPRPVNAPRP,0.135
25,RRIRPRPPRLPRPRPRPTRVPRP,0.547

row,Sequence,shrunken log2 fold change
1,RRIRNRPPRLPRPRPRPWICPRP,-0.192
2,RRIRCRPPRLPRPRPRPGDCPRP,0.0297
3,RRIRPRPPRLPRPRPRPWPCPRP,0.0872
4,RRIRERPPRLPRPRPRPIFRPRP,-0.00741
5,RRIRYRPPRLPRPRPRPNIAPRP,-0.64
6,RRIRQRPPRLPRPRPRPFMSPRP,-0.0241
7,RRIRFRPPRLPRPRPRPLLWPRP,0.305
8,RRIRVRPPRLPRPRPRPYECPRP,-1.34
9,RRIRIRPPRLPRPRPRPNRSPRP,0.00656
10,RRIRPRPPRLPRPRPRPQHFPRP,-0.297
11,RRIRCRPPRLPRPRPRPRDVPRP,0.227
12,RRIRPRPPRLPRPRPRPPKAPRP,-0.0122
13,RRIRCRPPRLPRPRPRPDAPPRP,0.515
14,RRIRWRPPRLPRPRPRPRDSPRP,-0.299
15,RRIRSRPPRLPRPRPRPDVLPRP,-0.104
16,RRIRKRPPRLPRPRPRPYYMPRP,-0.405
17,RRIRRRPPRLPRPRPRPHLLPRP,-0.0838
18,RRIRHRPPRLPRPRPRPSEWPRP,-0.0167
19,RRIRYRPPRLPRPRPRPRVQPRP,-0.617
20,RRIRERPPRLPRPRPRPVNPPRP,-0.0961
21,RRIRVRPPRLPRPRPRPNMPPRP,-0.0801
22,RRIRARPPRLPRPRPRPRTKPRP,0.565
23,RRIRERPPRLPRPRPRPKQNPRP,-0.073
24,RRIRDRPPRLPRPRPRPHHAPRP,0.00408
25,RRIRIRPPRLPRPRPRPFNTPRP,-0.191
